The record followed here is the supplement of paper PMC12042874.

± gives the uncertainty stated by the source.

The series is described as follows: amyloid nucleation score (Sup35N fusion, yeast selection) (log enrichment); library NNK1; higher = more nucleation; inactive = no reads after selection. A digest of the protocol: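 For the nucleation score, DiMSum gave the log enrichment of output over input reads, centred on the mode score of non-aggregating sequences. Psi-negative yeast expressing Sup35N fused to peptides of 20 random codons were induced with 100 μM copper sulfate for 24 hours and grown 7 days at 30°C on medium lacking adenine and uracil. Input and output plasmid inserts were Illumina-sequenced, and sequences with under 100 input reads were excluded.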
Consider CFEYFY, for which the amyloid nucleation score is -0.664 ± 0.32.

CFFYDCGWTCPLKNIGSYTF came in with an amyloid nucleation score of 0.07 ± 0.51.

CFLMNLVAYFVFLRTLS showed an amyloid nucleation score of 1.49 ± 0.56.

Substance CFMVHNTVVRVGKE came in with an amyloid nucleation score of 0.177 ± 0.7.

As to CFPPSNCYLLYKLCVLLRIN, the amyloid nucleation score is -0.134 ± 0.45.

As for CFQLRVGMTDDALWRLMC, the amyloid nucleation score is -0.452 ± 1.9.

As for CFQVYICVVDSDYRNFLWDA, the amyloid nucleation score was determined as 3.73 ± 0.077.

The substance CFSGPPMTESVYNPTSGNEH came in with an amyloid nucleation score of 0.152 ± 0.72.

In the case of CFSHVWVDLIDFYVRFVLFR, the amyloid nucleation score was -0.209 ± 0.69.

Turning to CFSQVCDKFMMEMMFSCFKV, the amyloid nucleation score is 0.451 ± 0.24.

Regarding CFTICFVGYCSRVKGWLMQR, the amyloid nucleation score was -0.617 ± 0.71.

The substance CFTYSARH showed an amyloid nucleation score of 3.67 ± 0.11.

On to CGAMGVVL, for which the amyloid nucleation score is 0.112 ± 0.26.

In turn, CGCCARWNYIIMMGWGGCVL came in with an amyloid nucleation score of 0.096 ± 0.69.

In the case of CGEIENRMVTEAVTALLLYD, the amyloid nucleation score was 0.034 ± 0.41.

The substance CGRKGEHIFYTTDNEYLNYV had an amyloid nucleation score of 0.211 ± 0.36.

CGVNLKNLLTMLPDIGLHAV: the amyloid nucleation score was found to be 0.227 ± 0.25.

Consider CGWRSLVVFSFDLDAS, for which the amyloid nucleation score is 0.876 ± 0.47.

In turn, CHIGSRPLASMKAFPHCDVA registered an amyloid nucleation score of 1 ± 0.57.

CHNHRMYH yielded an amyloid nucleation score of 0.072 ± 0.9.

With CHNVAVPRVIVIGFDSGILY, the amyloid nucleation score stood at 0.341 ± 0.7.

The substance CHQAEPGIGMRSCTLVGEGV returned an amyloid nucleation score of 1.36 ± 0.61.

As to CHQFV, the amyloid nucleation score is 0.833 ± 0.5.

Substance CHVQMSFNGLRYNFHTIFFI yielded an amyloid nucleation score of 1.2 ± 0.74.

Substance CICLDTSGSVLYSLCTDCGL showed an amyloid nucleation score of 0.871 ± 0.69.

For CIGRCMWI, the amyloid nucleation score was 1.81 ± 0.61.

Regarding CIIVVSTRAADPDLCSYIML, the amyloid nucleation score is 0.234 ± 0.75.

Consider CILLVFEDMWVSIV, for which the amyloid nucleation score was -0.53 ± 0.36.

For CILRRMDADFIFIVCVDCFG, the amyloid nucleation score is -0.055 ± 0.4.

On to CIRGGSIWLMGHNVREVC, for which the amyloid nucleation score amounted to 0.401 ± 0.49.

Turning to CIRVSIVID, the amyloid nucleation score amounted to 0.215 ± 0.38.

In turn, CIVVMGSVAYHGRFYFVDVE gave an amyloid nucleation score of 1.43 ± 0.76.

Consider CIVVTLYSIMFRDGS, for which the amyloid nucleation score entry was “inactive”.

The substance CKMNYGLVLAGSLGVGSGQD yielded an amyloid nucleation score of 0.317 ± 0.42.

In the case of CKRLS, the amyloid nucleation score was -0.216 ± 1.1.

In the case of CKRTSDPCHIVECFLPFHVL, the amyloid nucleation score was 0.315 ± 0.85.

With CKVTSGDIQTYGVLGPQRPA, the amyloid nucleation score is -1.05 ± 1.1.

With CLFDHKFMRIALHL, the amyloid nucleation score result was “inactive”.

As for CLFKGLCSGWLREYALPYFC, the amyloid nucleation score is -1.05 ± 0.97.

As to CLINFP, the amyloid nucleation score turned out to be 0.722 ± 0.74.

CLLTNTKFWYISMSHDLGCL displayed an amyloid nucleation score of 0.559 ± 0.34.

Regarding CLMGTHILGSRVVGTPSMVR, the amyloid nucleation score turned out to be 0.47 ± 1.2.

CLMIKMHSILIDVIYLHTRV: the amyloid nucleation score is -0.363 ± 0.77.

CLRPLEPDVYVTRILRFCDS: the amyloid nucleation score is -0.304 ± 0.39.

CMKYMLCARKYFKSYSWLLS had an amyloid nucleation score of 1.04 ± 0.73.

Consider CMLDGALLLILVVFTIPCLN, for which the amyloid nucleation score is 0.909 ± 0.6.

Take CMMMYVCLLSSGHVGMSLGV: the amyloid nucleation score was determined as 0.18 ± 0.43.

In the case of CMSLFRYENVQYLFTRIHSI, the amyloid nucleation score stood at 1.43 ± 0.34.

As to CMWWSCGSNIVYVALLMWCH, the amyloid nucleation score was -0.191 ± 0.4.

Regarding CNCAKSNVRCLFLFFDGQTR, the amyloid nucleation score is 0.775 ± 0.92.

In turn, CNCMVLSPLDVMEPIAMGFQ registered an amyloid nucleation score of 0.455 ± 1.4.

In turn, CNISAITRFTEIWSRVTSVF gave an amyloid nucleation score of 1.59 ± 0.8.

CNMKNDLTRGNSRFCNLCCN: the amyloid nucleation score is 0.85 ± 0.53.

Take CNTLDLMAFNSLYLSPVSTC: the amyloid nucleation score entry is “inactive”.

As to CNWATLTMWLLSCIRPTPRS, the amyloid nucleation score was -1.1 ± 2.4.

CNWVIRNPYVGPIRSNVHGS: the amyloid nucleation score worked out at 0.124 ± 0.58.

Regarding CPASKFDQGP, the amyloid nucleation score was -0.038 ± 0.81.

Regarding CPLSNGSVRVNDGATTLAWL, the amyloid nucleation score was -0.956 ± 2.1.

Substance CPRPYDRSALSRKLY gave an amyloid nucleation score of 0.713 ± 0.32.

As for CPSEYQIAGMIASSYMHLGE, the amyloid nucleation score was determined as 0.872 ± 0.33.

Turning to CPTEGGLVWSYWSLS, the amyloid nucleation score was 1.09 ± 0.83.

Regarding CPVKGFLSVTACDYL, the amyloid nucleation score is -0.384 ± 0.57.

For CQFDVGAQLAYYGR, the amyloid nucleation score entry is “inactive”.

Turning to CQQVLWS, the amyloid nucleation score was found to be 0.039 ± 0.79.

Substance CRASFACERDNIS had an amyloid nucleation score of 0.547 ± 0.31.

CRCAPYSNGKTGIHARLFNT: the amyloid nucleation score turned out to be 0.794 ± 1.1.

As for CRLFVFPF, the amyloid nucleation score is -0.336 ± 1.4.

Regarding CRMTGSFKSTCRSKGLASCS, the amyloid nucleation score was determined as 0.002 ± 0.3.

On to CRNLFMWDIRRGKYITARKK, for which the amyloid nucleation score is -0.779 ± 1.6.

Consider CRNWKWSRRFYYGERNGGRL, for which the amyloid nucleation score worked out at 0.416 ± 0.81.

Consider CRRRMFLQVPRIYFEMRSYA, for which the amyloid nucleation score came out at 0.492 ± 0.91.

With CRSTYDQLPEYLST, the amyloid nucleation score is -0.117 ± 0.56.

The substance CRTCGFPLLYSAELVLEVC registered an amyloid nucleation score of 0.018 ± 0.45.

Turning to CRWSVLGREFSSQFVCWEDW, the amyloid nucleation score was -0.59 ± 0.54.

With CRYPWRH, the amyloid nucleation score is -0.042 ± 0.6.

Turning to CSAASVCPGD, the amyloid nucleation score was -0.116 ± 1.5.

Take CSCEVNMRLIGCKK: the amyloid nucleation score was -0.253 ± 1.2.

CSCYRFLGDSKWIRHHINRT: the amyloid nucleation score was -0.679 ± 0.85.

The substance CSFFTKDSDTP came in with an amyloid nucleation score of 0.327 ± 0.3.

CSGNLVMVLSAACAKVGYLV: the amyloid nucleation score was -1.48 ± 1.7.

For the substance CSGWMNGLSRVKPAHL, the amyloid nucleation score entry was “inactive”.

As for CSHGNYHITCCPHAFFMTAI, the amyloid nucleation score was determined as 4.91 ± 0.098.

With CSKSS, the amyloid nucleation score is -0.909 ± 2.7.

Consider CSLSETFPKVYFMWTQRSYV, for which the amyloid nucleation score was -1.36 ± 2.4.

For CSNLM, the amyloid nucleation score was -0.675 ± 0.66.

CSNVGVCGMSIH registered an amyloid nucleation score of 5.01 ± 0.052.

Substance CSSALGIMKWTRIYVCRGRG displayed an amyloid nucleation score of 1.6 ± 0.24.

Regarding CSVFWCFVLGLVNRNLLKRS, the amyloid nucleation score is -0.928 ± 0.4.

For the substance CSWAASY, the amyloid nucleation score was -0.689 ± 1.9.

In the case of CSWLSFVEEVGLGSERGVRG, the amyloid nucleation score is -0.629 ± 1.

CSYRWVELLCSC: the amyloid nucleation score was 3.93 ± 0.11.

As to CTGFLRVWPLGEMYEDRR, the amyloid nucleation score was found to be 0.12 ± 0.58.

Substance CTMSTSMPHRAVRRELSSIE displayed an amyloid nucleation score of 0.052 ± 0.3.

CTPFMRTSLSFICSDSSVML: the amyloid nucleation score is 0.771 ± 0.82.

On to CTSVRVLGSNQCSYGVSKCR, for which the amyloid nucleation score is -0.39 ± 0.39.

On to CTVDMEGFGFSRIVVDRGRS, for which the amyloid nucleation score is -0.118 ± 0.6.

For the substance CTVMDRLLTQEPTNRRWSRY, the amyloid nucleation score is 0.06 ± 0.84.

As to CTYTAPYAPSLMPGPRVGYI, the amyloid nucleation score entry is “inactive”.

CVFSVRYALDRWDPTKCEVG returned an amyloid nucleation score of 0.325 ± 0.43.

With CVFVRVF, the amyloid nucleation score result was “inactive”.

As to CVFYGFWYFGW, the amyloid nucleation score was 0.145 ± 0.34.

As to CVGDFVME, the amyloid nucleation score was -0.318 ± 0.98.

Consider CVHQIVGLTRIPFGWELSWR, for which the amyloid nucleation score was -1.62 ± 1.7.

Turning to CVIRKSLFKCQFSMIRESWV, the amyloid nucleation score was 0.298 ± 0.31.

CVKLGYYWSF: the amyloid nucleation score turned out to be 0.598 ± 0.16.

In the case of CVLRMNVFDSKGFWVGYRRD, the amyloid nucleation score came out at 0.602 ± 0.41.

Consider CVLSPALFMRARLLRGILGR, for which the amyloid nucleation score came out at 0.332 ± 0.72.

CVMWGTLRFLNLASGLFLCA gave an amyloid nucleation score of 0.778 ± 0.93.

As to CVNKPLNGHLANMSWRGY, the amyloid nucleation score came to 1.15 ± 0.57.

As for CVPSVRNSVMW, the amyloid nucleation score was -0.181 ± 0.88.

CVRFDSVNCHHLF displayed an amyloid nucleation score of 0.238 ± 0.24.

Consider CVSHFIHCDWLGQRL, for which the amyloid nucleation score came to 0.135 ± 0.26.

In the case of CVSYNLFLWSYFKRWSNRTC, the amyloid nucleation score is 0.141 ± 0.79.

As for CVVRVWVYRGGKYVYLEKAP, the amyloid nucleation score is -1.48 ± 1.4.

CWAKEFFNNESIRG registered an amyloid nucleation score of 0.077 ± 0.49.

CWDKRLNSY: the amyloid nucleation score came out at 0.688 ± 0.61.

Consider CWIMYDYSSPGLFL, for which the amyloid nucleation score was -1.1 ± 1.6.

For the substance CWPRWNSVSLGSLSILLCFF, the amyloid nucleation score worked out at 3.77 ± 0.11.

As to CWQSGMCNRSRMQAVRVPHD, the amyloid nucleation score stood at 0.698 ± 0.56.

For the substance CWRFRPFRPASIKFTQYNNH, the amyloid nucleation score is 4.49 ± 0.072.

As for CYAPSGLLNLPNASFS, the amyloid nucleation score was -1.26 ± 1.5.

Turning to CYATMYAQGDRRSGDGCLPT, the amyloid nucleation score was -1.86 ± 1.4.

In turn, CYCFGQCWYDYVCIELLIGR came in with an amyloid nucleation score of 5.06 ± 0.052.

Turning to CYDGDRFIEEA, the amyloid nucleation score was 0.364 ± 0.66.

Turning to CYEEPRMPNFFAVFYNSMLE, the amyloid nucleation score worked out at 0.144 ± 0.41.

Consider CYFVCNDHCYFYQSLLQTHE, for which the amyloid nucleation score stood at 5.32 ± 0.058.

As to CYGFLVSMMSYLSLVELVFL, the amyloid nucleation score is -0.04 ± 0.26.

For CYKPPLWMMYLLLRRDVYRD, the amyloid nucleation score entry is “inactive”.

CYKVFPVVSYKVGGASLTAR yielded an amyloid nucleation score of 0.105 ± 0.31.

Consider CYLACLLQTHYND, for which the amyloid nucleation score was -1.18 ± 2.7.

In turn, CYPPEVF came in with an amyloid nucleation score of 1.31 ± 0.67.

Regarding CYSQDRSRLVSEDYY, the amyloid nucleation score is -0.525 ± 0.34.

Consider CYSWHGVYRGYVYSSYNNYV, for which the amyloid nucleation score amounted to 0.77 ± 0.52.

On to DAFIV, for which the amyloid nucleation score is -0.684 ± 0.54.

With DAGNVLARLDGFNAG, the amyloid nucleation score is -0.121 ± 0.49.

Turning to DALDLRSWQGEL, the amyloid nucleation score is -0.274 ± 1.7.

DALII: the amyloid nucleation score was 0.257 ± 0.4.

For the substance DAQFGRHVLGLFFSRQEMLV, the amyloid nucleation score is -1.52 ± 1.2.

With DARLC, the amyloid nucleation score is -0.226 ± 1.

Regarding DCGRWNRKRPNSVLGVYL, the amyloid nucleation score is 1.48 ± 0.88.

Substance DCHVRCLRQV gave an amyloid nucleation score of 0.611 ± 0.35.
